From patent US10427126B2, “System and method for longitudinal analysis of peptide synthesis” (Roche Sequencing Solutions, Inc., priority 2015, dated 2019)

Tests used:
[1] = target: T1, streptavidin (Streptomyces avidinii, UniProt P22629); assay: Cy5-labeled streptavidin binding to control peptide features on a peptide array (fluorescence signal output, FIG. 12)
Text: Whereas the hypothetical data presented in FIGS. 8-11 are for two example peptide arrays, actual signal output data following interrogation of a population of control peptide features can be presented in alternative or additional formats. With reference to FIG. 12, data was collected for a peptide array synthesis operation including twelve total synthesis periods. Control peptide features having the streptavidin binder sequence WTHPQFE (SEQ ID NO:1) were synthesized over three consecutive and uninterrupted synthesis periods (e.g., see FIG. 3) with control peptide features synthesized beginning with each of the first ten synthesis periods. […] The signal output is measured for each of the control peptide features using one or more interrogation and detection techniques as described herein. […]
Control peptide features are analyzed following the completion of a synthesis operation by array deprotection, streptavidin binding, and array scanning. […] Streptavidin fluorescence signal is detected by scanning the array at 2 μm resolution and 15% gain with a 635 nm excitation wavelength using an MS200 microarray scanner.
Box and whisker plots for analysis of control peptide feature data are prepared in a two-part process. First, data is aggregated for a plurality of synthesis operations that were individually determined to pass a quality control assessment. […]

[2] = target: T1, streptavidin; details: peptide including the binder sequence; cited from earlier work

T1 sequence (P22629 25-183, species assumed): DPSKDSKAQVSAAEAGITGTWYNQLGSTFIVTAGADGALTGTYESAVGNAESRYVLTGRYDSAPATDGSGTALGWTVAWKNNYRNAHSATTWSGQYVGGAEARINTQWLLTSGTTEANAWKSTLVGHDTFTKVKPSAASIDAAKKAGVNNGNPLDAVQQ

Substance | signal output as percentage of the aggregate data (2^14.3 units) ([1]; fourth synthesis operation, synthesis period four) | signal output as percentage of the aggregate data (2^14.3 units) ([1]; third synthesis operation) | binding by streptavidin [2]
WTHPQFE | about 5% | about 54% | 
FDEWL |  |  | can be bound by streptavidin
